# Data: paper PMC6791870, “Switch of the interactions between the ribosomal stalk and EF1A in the GTP- and GDP-bound conformations” (Scientific Reports, 2019)
# Positions count from the first letter of the chain named. Primed or numbered codes have the meaning given here. Where no end group is shown, it is not given here. FITC′ = fluorescein isothiocyanate label
# T1: PhoEF1A I328S•GTP•PfuPelota complex (Pyrococcus horikoshii | Pyrococcus …, UniProt O59153 1-428, I328S)
# T1 construct: elongation factor aEF1A of Pyrococcus horikoshii (PhoEF1A); complex of the EF1A mutant, GTP and PfuPelota; also called I328(F331)S; P. horikoshii aEF1A-I328S
# T1 sequence 1: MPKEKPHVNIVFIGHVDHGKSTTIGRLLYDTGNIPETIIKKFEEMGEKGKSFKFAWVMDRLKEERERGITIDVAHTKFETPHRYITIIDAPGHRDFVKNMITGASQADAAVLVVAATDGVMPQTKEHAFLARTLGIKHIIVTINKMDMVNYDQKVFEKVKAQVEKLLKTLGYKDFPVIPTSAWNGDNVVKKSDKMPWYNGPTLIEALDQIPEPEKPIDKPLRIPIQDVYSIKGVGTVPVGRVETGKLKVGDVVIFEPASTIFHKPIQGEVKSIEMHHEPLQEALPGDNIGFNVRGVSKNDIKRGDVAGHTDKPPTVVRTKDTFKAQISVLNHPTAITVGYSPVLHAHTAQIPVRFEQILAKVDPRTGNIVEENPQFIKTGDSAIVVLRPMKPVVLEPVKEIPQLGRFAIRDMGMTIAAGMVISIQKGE
# T1 sequence 2: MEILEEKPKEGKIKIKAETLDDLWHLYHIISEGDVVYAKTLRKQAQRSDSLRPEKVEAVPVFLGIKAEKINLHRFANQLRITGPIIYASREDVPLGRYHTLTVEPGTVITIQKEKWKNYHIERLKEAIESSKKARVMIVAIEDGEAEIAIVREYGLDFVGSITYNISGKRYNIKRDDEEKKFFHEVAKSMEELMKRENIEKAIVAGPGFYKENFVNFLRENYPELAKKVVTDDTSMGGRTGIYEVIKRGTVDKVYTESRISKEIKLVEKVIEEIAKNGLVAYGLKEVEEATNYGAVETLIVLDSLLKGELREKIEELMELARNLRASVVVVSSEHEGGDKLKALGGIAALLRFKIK
# T2: PhoEF1A R406A•GTP•PfuPelota complex (Pyrococcus horikoshii | Pyrococcus …, UniProt O59153 1-428, R406A)
# T2 construct: elongation factor aEF1A of Pyrococcus horikoshii (PhoEF1A); complex of the EF1A mutant, GTP and PfuPelota; also called R406(R409)A; P. horikoshii aEF1A-R406A
# T2 sequence 1: T1 sequence 1 with S328I, R406A
# T2 sequence 2: T1 sequence 2
# T3: PhoEF1A V398S•GTP•PfuPelota complex (Pyrococcus horikoshii | Pyrococcus …, UniProt O59153 1-428, V398S)
# T3 construct: elongation factor aEF1A of Pyrococcus horikoshii (PhoEF1A); complex of the EF1A mutant, GTP and PfuPelota; also called V398(F401)S; P. horikoshii aEF1A-V398S
# T3 sequence 1: T1 sequence 1 with S328I, V398S
# T3 sequence 2: T1 sequence 2
# B1: FITC-labeled C-terminal 14-mer peptide of P. horikoshii aP1 (PhoP1C14) (peptide)
# peptide: {FITC′}-SEEEALAGLSALFG
# notes: also called FITC-labeled peptide of PhoP1C14; source: synthetic peptide (Hokkaido System Science Co., Ltd)
# Key:
# Test in all cases: fluorescence polarisation; FITC-labeled PhoP1C14 peptide (50 nM) mixed with 0-160 µM of the complex of each PhoEF1A mutant, GTP and PfuPelota; 20 mM HEPES-KOH pH 7.6, 10 mM MgCl2, 150 mM KCl, 0.1 mg/ml BSA; 25 °C; nonlinear regression, one site specific binding (GraphPad Prism 6); average of three replicates
# Conditions in all cases: both partners purified
# [1] = biological target: T1, PhoEF1A I328S•GTP•PfuPelota complex
# [2] = biological target: T2, PhoEF1A R406A•GTP•PfuPelota complex
# [3] = biological target: T3, PhoEF1A V398S•GTP•PfuPelota complex
binder,measurement,setting,value
B1,Kd,[1],93.3 ± 10.2 µM
same,Kd,[2],33 ± 2.1 µM
same,Kd,[3],38.3 ± 2.8 µM
